Reference: article PMC6030200 (2018)

How the values were obtained:
Assay in all cases: SPR
[1] = molecular target: T1, recombinant human integrin α6β4 (human, UniProt P23229;P16144)
T1 chain 1: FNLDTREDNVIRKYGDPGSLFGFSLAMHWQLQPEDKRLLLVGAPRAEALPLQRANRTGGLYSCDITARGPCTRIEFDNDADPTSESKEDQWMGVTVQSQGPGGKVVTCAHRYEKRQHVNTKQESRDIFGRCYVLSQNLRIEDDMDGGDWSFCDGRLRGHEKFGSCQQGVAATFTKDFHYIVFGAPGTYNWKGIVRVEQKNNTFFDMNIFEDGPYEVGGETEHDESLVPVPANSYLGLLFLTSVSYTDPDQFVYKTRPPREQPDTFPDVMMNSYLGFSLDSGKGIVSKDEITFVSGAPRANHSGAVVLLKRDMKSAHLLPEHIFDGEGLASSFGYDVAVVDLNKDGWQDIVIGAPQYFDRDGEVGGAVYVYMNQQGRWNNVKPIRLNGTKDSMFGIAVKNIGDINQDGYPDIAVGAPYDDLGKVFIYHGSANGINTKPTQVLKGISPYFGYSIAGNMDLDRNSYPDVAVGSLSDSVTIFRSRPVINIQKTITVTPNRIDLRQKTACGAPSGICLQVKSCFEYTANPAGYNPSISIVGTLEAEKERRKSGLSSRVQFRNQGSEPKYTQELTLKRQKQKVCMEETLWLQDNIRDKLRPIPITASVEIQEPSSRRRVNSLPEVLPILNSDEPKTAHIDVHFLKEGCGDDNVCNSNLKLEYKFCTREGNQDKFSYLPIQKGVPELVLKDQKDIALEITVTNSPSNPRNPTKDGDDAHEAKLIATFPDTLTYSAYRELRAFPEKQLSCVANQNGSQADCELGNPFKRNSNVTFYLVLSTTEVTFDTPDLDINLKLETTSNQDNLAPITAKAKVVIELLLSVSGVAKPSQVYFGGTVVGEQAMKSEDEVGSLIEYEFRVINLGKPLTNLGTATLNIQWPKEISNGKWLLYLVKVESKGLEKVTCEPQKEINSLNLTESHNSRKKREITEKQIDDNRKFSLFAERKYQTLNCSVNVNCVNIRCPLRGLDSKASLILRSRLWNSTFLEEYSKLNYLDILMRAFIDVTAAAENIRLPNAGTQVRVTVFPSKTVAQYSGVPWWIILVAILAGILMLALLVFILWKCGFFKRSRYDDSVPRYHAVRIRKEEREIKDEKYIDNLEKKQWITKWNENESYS
T1 chain 2: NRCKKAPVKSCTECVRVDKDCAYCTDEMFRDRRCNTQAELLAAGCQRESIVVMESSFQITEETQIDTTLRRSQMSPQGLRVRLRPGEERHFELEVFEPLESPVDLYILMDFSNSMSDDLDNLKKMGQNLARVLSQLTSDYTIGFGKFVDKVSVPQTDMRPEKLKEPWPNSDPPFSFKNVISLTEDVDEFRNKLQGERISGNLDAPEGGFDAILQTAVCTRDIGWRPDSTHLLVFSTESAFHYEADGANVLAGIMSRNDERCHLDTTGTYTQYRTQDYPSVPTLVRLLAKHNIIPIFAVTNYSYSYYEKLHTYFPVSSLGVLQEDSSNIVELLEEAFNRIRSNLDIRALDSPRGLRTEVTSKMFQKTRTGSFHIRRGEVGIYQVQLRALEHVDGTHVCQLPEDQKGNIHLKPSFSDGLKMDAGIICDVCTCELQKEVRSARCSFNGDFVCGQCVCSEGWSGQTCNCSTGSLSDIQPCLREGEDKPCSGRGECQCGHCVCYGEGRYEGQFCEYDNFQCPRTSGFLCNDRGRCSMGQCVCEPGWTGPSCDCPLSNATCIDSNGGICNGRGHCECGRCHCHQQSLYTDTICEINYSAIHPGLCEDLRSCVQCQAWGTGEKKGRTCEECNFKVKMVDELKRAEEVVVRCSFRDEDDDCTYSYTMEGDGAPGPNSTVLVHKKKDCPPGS

[2] = molecular target: T2, recombinant human integrin α6β1 (human, UniProt P23229;P05556)
[3] = molecular target: T1, recombinant human integrin α6β4
[4] = molecular target: T2, recombinant human integrin α6β1; remark: listed apart in the source

B1: HAdV-40 penton base protein, recombinant, soluble (natural protein)
chain: MRRAVGVPPVMAYAEGPPPSYESVMETADLPATLQALHVPPRYLGPTEGRNSIRYSELAPLYDTTRVYLVDNKSADIASLNYQNDHSNFQTTVVQNNDFTPTEAGTQTINFDDRSRWGGDLKTILRTNMPNINEFMSTNKFRARVMVEKVNRKTNAPRYEWFEFTLPEGNYSETMTIDLMNNAIVDNYLAVGRQNGVLESDIGVKFDTRNFRLGWDPVTKLVMPGVYTNEAFHPDIVLLPGCGVDFTQSRLNNLLGIRKRMPFQKGFQIMYEDLEGGNIPALLDVEKYEASIKEAQEIRGADFKPNPQDLEIVPVEKDSKERSYNLLEGDKNNTAYRSWFLAYNYGDAEKGVKSWTLLTTTDVTCGSQQVYWSLPDMMQDPVTFRPSTQVSNYPVVGVELLPVHAKSFYNEQAVYSQLIRQSTALTHIFNRFPENQILVRPPAPTITTVSENVPALTDHGTLPLRSSISGVQRVTITDARRRTCPYVHKALGIVAPKVLSSRTF
koff [1]: 0.0049 s⁻¹
Kd [2]: 426 nM
Kd [3]: 32.7 nM

B2: HAdV-41 penton base protein, recombinant, soluble (natural protein)
chain: MRRAVGVPPVMAYAEGPPPSYESVMGSADSPATLEALYVPPRYLGPTEGRNSIRYSELAPLYDTTRVYLVDNKSADIASLNYQNDHSNFQTTVVQNNDFTPAEAGTQTINFDERSRWGADLKTILRTNMPNINEFMSTNKFKARLMVEKKNKETGLPRYEWFEFTLPEGNYSETMTIDLMNNAIVDNYLEVGRQNGVLESDIGVKFDTRNFRLGWDPVTKLVMPGVYTNEAFHPDIVLLPGCGVDFTQSRLSNLLGIRKRLPFQEGFQIMYEDLEGGNIPALLDVAKYEASIQKAKEEGKEIGDDTFATRPQDLVIEPVAKDSKNRSYNLLPNDQNNTAYRSWFLAYNYGDPKKGVQSWTLLTTADVTCGSQQVYWSLPDMMQDPVTFRPSTQVSNYPVVGVELLPVHAKSFYNEQAVYSQLIRQSTALTHVFNRFPENQILVRPPAPTITTVSENVPALTDHGTLPLRSSISGVQRVTITDARRRTCPYVHKALGIVAPKVLSSRTF
koff [4]: 0.011 s⁻¹
koff [1]: 0.022 s⁻¹
Kd [2]: 473 nM
Kd [3]: 41.2 nM

B3: HAdV-5 penton base protein, recombinant, soluble (natural protein)
chain: MRRAAMYEEGPPPSYESVVSAAPVAAALGSPFDAPLDPPFVPPRYLRPTGGRNSIRYSELAPLFDTTRVYLVDNKSTDVASLNYQNDHSNFLTTVIQNNDYSPGEASTQTINLDDRSHWGGDLKTILHTNMPNVNEFMFTNKFKARVMVSRLPTKDNQVELKYEWVEFTLPEGNYSETMTIDLMNNAIVEHYLKVGRQNGVLESDIGVKFDTRNFRLGFDPVTGLVMPGVYTNEAFHPDIILLPGCGVDFTHSRLSNLLGIRKRQPFQEGFRITYDDLEGGNIPALLDVDAYQASLKDDTEQGGGGAGGSNSSGSGAEENSNAAAAAMQPVEDMNDHAIRGDTFATRAEEKRAEAEAAAEAAAPAAQPEVEKPQKKPVIKPLTEDSKKRSYNLISNDSTFTQYRSWYLAYNYGDPQTGIRSWTLLCTPDVTCGSEQVYWSLPDMMQDPVTFRSTRQISNFPVVGAELLPVHSKSFYNDQAVYSQLIRQFTSLTHVFNRFPENQILARPPAPTITTVSENVPALTDHGTLPLRNSIGGVQRVTITDARRRTCPYVYKALGIVSPRVLSSRTF
koff [4]: 0.0059 s⁻¹
koff [1]: 0.0045 s⁻¹
Kd [2]: 1560 nM
Kd [3]: 95 nM
